One series addresses GST-Gli1ZF-K350A (UniProt P08151 242-424, K350A). Briefly: EMSA. (A gel shift assay detects complexes by their altered migration in electrophoresis.)
The target of another series is GST-Gli1ZF-WT (UniProt P08151 242-424). In words: EMSA.
Chain of GST-Gli1ZF-WT (P08151 242-424): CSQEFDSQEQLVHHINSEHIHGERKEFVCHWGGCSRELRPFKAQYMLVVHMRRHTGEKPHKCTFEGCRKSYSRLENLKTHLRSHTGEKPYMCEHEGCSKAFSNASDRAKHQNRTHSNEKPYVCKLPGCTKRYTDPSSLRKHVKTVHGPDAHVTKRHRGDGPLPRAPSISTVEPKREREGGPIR

Chain of GST-Gli1ZF-K350A (P08151 242-424 K350A): as the sequence (P08151 242-424) above, with K109A counted along it

B1: GliBS (dsDNA)
DNA 1: TTGCCTACCTGGGTGGTCTCTCCACTT
DNA 2: AAGTGGAGAGACCACCCAGGTAGGCAA
Regarding B1, the results for the binding result with GST-Gli1ZF-K350A and with GST-Gli1ZF-WT were “no binding” and “binds”, respectively.

Source of the values: paper PMC4298015.
